Experimental findings from paper PMC8405996, “A structurally preserved allosteric site in the MIF superfamily affects enzymatic activity and CD74 activation in D-dopachrome tautomerase” (The Journal of Biological Chemistry, 2021) are described below.

This data set concerns the molecule itself. Put plainly: crystal structure; hanging-drop vapor diffusion at 20 °C; diffraction data at 100 K; molecular replacement; trimer of MIF-2 in the crystal.

B1: D-dopachrome tautomerase (MIF-2), wild type (enzyme, human, UniProt P30046 1-118, looked up)
chain: MPFLELDTNLPANRVPAGLEKRLCAAAASILGKPADRVNVTVRPGLAMALSGSTEPCAQLSISSIGVVGTAEDNRSHSAHFFEFLTKELALGQDRILIRFFPLESWQIGKIGTVMTFL
notes: human D-dopachrome tautomerase (MIF-2), monomer of 117 amino acids with the catalytic Pro1 at the N terminus (initiating Met removed); Homotrimer; no tag is named; also called wt-MIF-2; DDT; source: E. coli BL21-Gold (DE3), purified (Q-Sepharose, Superdex 75)
With B1, the stoichiometry N (usually a count of units in the complex or per binding partner) was determined as 3.

B2: MIF-2 P1G variant (enzyme, human, UniProt P30046 1-118, looked up)
chain: MGFLELDTNLPANRVPAGLEKRLCAAAASILGKPADRVNVTVRPGLAMALSGSTEPCAQLSISSIGVVGTAEDNRSHSAHFFEFLTKELALGQDRILIRFFPLESWQIGKIGTVMTFL
notes: human D-dopachrome tautomerase (MIF-2) with P1G; the initiating Met was found kept in this variant (not cleaved in E. coli), so the chain begins Met-Gly1; also called P1G MIF-2; source: E. coli BL21-Gold (DE3), purified (Q-Sepharose, Superdex 75)
As for B2, the binding result is “binds”.
